Test results reported in FireProtDB (doi:10.1073/pnas.88.5.1706).

B1: DNA-Binding protein, P69542 (parent)
chain: MIKVEIKPSQAQFTTRSGVSRQGKPYSLNEQLCYVDLGNEYPVLVKITLDEGQPAYAPGLYTVHLSSFKVGQFGSLMIDRLRLVPAK

Variants of: B1
Details: Enterobacteria phage fd; pH 7; 25 °C; GdnHCl; CD; MOPS 50 mM; NaCl 100 mM; reversible: yes; structure 1VQB; whole UniProt chain shown

Row | Variant | ddG of mutation (higher = less stable) [kcal/mol] | denaturant m value [kcal/mol/M] | denaturant midpoint (higher = more stable) [M] | unfolding free energy [kcal/mol]
1 | MIKVEIKPSQAQFTTRSGVSRQGKPYSLNEQLCYADLGNEYPVLVKMTLDEGQPAYAPGLYTVHLSSFKVGQFGSLMIDRLRLVPAK [V35A I47M] | 4.4 | 4.2 | 1.47 | 4.6
2 | MIKVEIKPSQAQFTTRSGVSRQGKPYSLNEQLCYADLGNEYPVLVKVTLDEGQPAYAPGLYTVHLSSFKVGQFGSLMIDRLRLVPAK [V35A I47V] | 4.4 | 4.5 | 1.5 | 4.6
3 | MIKVEIKPSQAQFTTRSGVSRQGKPYSLNEQLCYADLGNEYPVLVKLTLDEGQPAYAPGLYTVHLSSFKVGQFGSLMIDRLRLVPAK [V35A I47L] | 2.9 | 4.5 | 1.85 | 6.1
4 | MIKVEIKPSQAQFTTRSGVSRQGKPYSLNEQLCYMDLGNEYPVLVKFTLDEGQPAYAPGLYTVHLSSFKVGQFGSLMIDRLRLVPAK [V35M I47F] | 2.3 | 4.7 | 1.99 | 6.8
5 | MIKVEIKPSQAQFTTRSGVSRQGKPYSLNEQLCYMDLGNEYPVLVKMTLDEGQPAYAPGLYTVHLSSFKVGQFGSLMIDRLRLVPAK [V35M I47M] | 3.5 | 3.8 | 1.65 | 5.5
6 | MIKVEIKPSQAQFTTRSGVSRQGKPYSLNEQLCYMDLGNEYPVLVKLTLDEGQPAYAPGLYTVHLSSFKVGQFGSLMIDRLRLVPAK [V35M I47L] | 1.6 | 4.1 | 2.14 | 7.4
7 | MIKVEIKPSQAQFTTRSGVSRQGKPYSLNEQLCYIDLGNEYPVLVKLTLDEGQPAYAPGLYTVHLSSFKVGQFGSLMIDRLRLVPAK [V35I I47L] | 1.1 | 4.2 | 2.27 | 7.9
8 | MIKVEIKPSQAQFTTRSGVSRQGKPYSLNEQLCYIDLGNEYPVLVKFTLDEGQPAYAPGLYTVHLSSFKVGQFGSLMIDRLRLVPAK [V35I I47F] | 2 | 4.4 | 2.05 | 7
9 | MIKVEIKPSQAQFTTRSGVSRQGKPYSLNEQLCYIDLGNEYPVLVKMTLDEGQPAYAPGLYTVHLSSFKVGQFGSLMIDRLRLVPAK [V35I I47M] | 2.8 | 4.2 | 1.87 | 6.3
10 | MIKVEIKPSQAQFTTRSGVSRQGKPYSLNEQLCYIDLGNEYPVLVKVTLDEGQPAYAPGLYTVHLSSFKVGQFGSLMIDRLRLVPAK [V35I I47V] | 3 | 4.1 | 1.8 | 6
11 | MIKVEIKPSQAQFTTRSGVSRQGKPYSLNEQLCYLDLGNEYPVLVKLTLDEGQPAYAPGLYTVHLSSFKVGQFGSLMIDRLRLVPAK [V35L I47L] | 3.5 | 4.3 | 1.7 | 5.5
12 | MIKVEIKPSQAQFTTRSGVSRQGKPYSLNEQLCYLDLGNEYPVLVKVTLDEGQPAYAPGLYTVHLSSFKVGQFGSLMIDRLRLVPAK [V35L I47V] | 5 | 4.2 | 1.32 | 4
13 | MIKVEIKPSQAQFTTRSGVSRQGKPYSLNEQLCYLDLGNEYPVLVKFTLDEGQPAYAPGLYTVHLSSFKVGQFGSLMIDRLRLVPAK [V35L I47F] | 3.94 | 4.3 | 1.6 | 5.1
14 | MIKVEIKPSQAQFTTRSGVSRQGKPYSLNEQLCYLDLGNEYPVLVKMTLDEGQPAYAPGLYTVHLSSFKVGQFGSLMIDRLRLVPAK [V35L I47M] | 5.3 | 5 | 1.37 | 3.7
15 | MIKVEIKPSQAQFTTRSGVSRQGKPYSLNEQLCYADLGNEYPVLVKITLDEGQPAYAPGLYTVHLSSFKVGQFGSLMIDRLRLVPAK [V35A] | 2.2 | 3.9 | 2.01 | 6.9
16 | MIKVEIKPSQAQFTTRSGVSRQGKPYSLNEQLCYLDLGNEYPVLVKITLDEGQPAYAPGLYTVHLSSFKVGQFGSLMIDRLRLVPAK [V35L] | 2.7 | 4.5 | 1.9 | 6.4
17 | MIKVEIKPSQAQFTTRSGVSRQGKPYSLNEQLCYMDLGNEYPVLVKITLDEGQPAYAPGLYTVHLSSFKVGQFGSLMIDRLRLVPAK [V35M] | 1 | 3.6 | 2.33 | 8
18 | MIKVEIKPSQAQFTTRSGVSRQGKPYSLNEQLCYIDLGNEYPVLVKITLDEGQPAYAPGLYTVHLSSFKVGQFGSLMIDRLRLVPAK [V35I] | 0.6 | 3.6 | 2.44 | 8.4
19 | MIKVEIKPSQAQFTTRSGVSRQGKPYSLNEQLCYFDLGNEYPVLVKITLDEGQPAYAPGLYTVHLSSFKVGQFGSLMIDRLRLVPAK [V35F] | 3.1 | 3.8 | 1.76 | 5.9
20 | MIKVEIKPSQAQFTTRSGVSRQGKPYSLNEQLCYCDLGNEYPVLVKITLDEGQPAYAPGLYTVHLSSFKVGQFGSLMIDRLRLVPAK [V35C] | 1.4 | 4.1 | 2.21 | 7.7
21 | MIKVEIKPSQAQFTTRSGVSRQGKPYSLNEQLCYCDLGNEYPVLVKCTLDEGQPAYAPGLYTVHLSSFKVGQFGSLMIDRLRLVPAK [V35C I47C] | 7.1 | 4.9 | 0.99 | 1.9
22 | MIKVEIKPSQAQFTTRSGVSRQGKPYSLNEQLCYVDLGNEYPVLVKVTLDEGQPAYAPGLYTVHLSSFKVGQFGSLMIDRLRLVPAK [I47V] | 2.5 | 3.9 | 1.91 | 6.5
23 | MIKVEIKPSQAQFTTRSGVSRQGKPYSLNEQLCYVDLGNEYPVLVKMTLDEGQPAYAPGLYTVHLSSFKVGQFGSLMIDRLRLVPAK [I47M] | 2.1 | 3.9 | 2.02 | 6.9
24 | MIKVEIKPSQAQFTTRSGVSRQGKPYSLNEQLCYVDLGNEYPVLVKLTLDEGQPAYAPGLYTVHLSSFKVGQFGSLMIDRLRLVPAK [I47L] | 0.6 | 3.7 | 2.43 | 8.4
25 | MIKVEIKPSQAQFTTRSGVSRQGKPYSLNEQLCYVDLGNEYPVLVKATLDEGQPAYAPGLYTVHLSSFKVGQFGSLMIDRLRLVPAK [I47A] | 7 | 4.3 | 0.87 | 2
26 | MIKVEIKPSQAQFTTRSGVSRQGKPYSLNEQLCYFDLGNEYPVLVKLTLDEGQPAYAPGLYTVHLSSFKVGQFGSLMIDRLRLVPAK [V35F I47L] | 4.1 | 3.9 | 1.51 | 4.9
